For 1 substance, Biological specific activity results are on record in patent US20250186598A1, “RECOMBINANT HUMAN SERUM ALBUMIN-COLLAGEN BINDING DOMAIN FUSION PROTEIN FOR TUMOR-SPECIFIC TARGETING MATRIX, AND USE THEREOF” (Huatong Forturn (China) Co., Ltd., priority 2020, published 2025).

The series relates to cell proliferation. Description: Recombinant human EGF biological activity assay (cell proliferation method/MTT colorimetric method), Chinese Pharmacopoeia 2015 General Rule 3528. The class given is cell-based. The procedure: According to the Pharmacopoeia method, the biological activity of the rHSA/CBD-EGF complex was measured at the cellular level [2015 edition of the Chinese Pharmacopoeia Three General Rules 3528: Recombinant human epidermal growth factor biological activity assay (cell proliferation method/MTT colorimetric method)].
For orientation: Tetrazolium assays rely on reduction of a dye to a coloured formazan, in cell work by metabolically active cells.

Take “rHSA/CBD: human CBD (vWF A3 domain) ligated to C-terminal of HSA through connecting peptide (GGGS)2; SEQ ID NO. 3”: the Biological specific activity entry is “None”.
